Results on 2 molecules are retold here after paper doi:10.1101/2021.10.13.464218 (bioRxiv, 2021).

Assay [1] concerns the target intimin (EHEC adhesin), overexpressed on the E. coli surface (Escherichia coli O157:H7 (EHEC), …, UniProt P43261). In words: flow cytometry on cells. On the technique in general: Flow cytometry measures light scatter and fluorescence of single cells or particles in a stream.
For assay [2], the target named is Ag2 (EPEA), displayed on E. coli (synthetic EPEA peptide tag (sequence …)). The assay can be described thus: flow cytometry on cells.

Chain of intimin (EHEC adhesin), overexpressed on the E. coli surface (P43261 40-934): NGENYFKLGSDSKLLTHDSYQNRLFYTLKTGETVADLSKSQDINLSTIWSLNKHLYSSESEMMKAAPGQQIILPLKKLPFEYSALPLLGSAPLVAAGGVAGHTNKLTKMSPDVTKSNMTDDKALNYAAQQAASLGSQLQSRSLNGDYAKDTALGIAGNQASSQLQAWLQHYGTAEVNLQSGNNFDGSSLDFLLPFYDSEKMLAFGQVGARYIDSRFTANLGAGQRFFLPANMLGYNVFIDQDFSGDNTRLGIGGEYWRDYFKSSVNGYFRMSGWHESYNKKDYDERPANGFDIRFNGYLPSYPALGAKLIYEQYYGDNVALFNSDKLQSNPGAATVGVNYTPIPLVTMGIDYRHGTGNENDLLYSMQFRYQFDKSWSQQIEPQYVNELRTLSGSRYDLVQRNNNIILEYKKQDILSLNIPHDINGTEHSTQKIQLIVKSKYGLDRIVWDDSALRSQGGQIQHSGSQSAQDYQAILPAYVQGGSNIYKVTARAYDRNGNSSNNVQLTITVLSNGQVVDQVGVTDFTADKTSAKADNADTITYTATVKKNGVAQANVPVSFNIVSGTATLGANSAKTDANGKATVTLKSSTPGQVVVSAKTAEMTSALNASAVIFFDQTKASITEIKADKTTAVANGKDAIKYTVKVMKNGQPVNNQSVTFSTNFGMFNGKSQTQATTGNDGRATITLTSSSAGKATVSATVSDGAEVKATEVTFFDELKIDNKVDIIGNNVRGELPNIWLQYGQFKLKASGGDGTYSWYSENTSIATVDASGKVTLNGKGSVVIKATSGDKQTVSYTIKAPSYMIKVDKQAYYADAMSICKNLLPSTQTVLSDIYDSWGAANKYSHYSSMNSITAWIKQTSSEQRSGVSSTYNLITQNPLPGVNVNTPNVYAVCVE

B1: IB10 nanobody against intimin, yeast-displayed (VHH)
VHH: QVQLVESGGGSVQAGGSLRLSCKASGFTFPYSDMGWYRQTPGNECELVSTTGPESDPSFWYADSVKGRFTISRDNTKNTVYLQMNDLKPEDTGMYVCASELGAGSGRCYGYHYWGQGTQVTVSS
In the case of B1, in assay [1], the binding result is on record as “binds”.

B2: Nb3 (anti-P53TA) nanobody, yeast-displayed (VHH)
VHH: QVQLQESGGGSVRPGESLRLSCIAAGTLFSGKAVGWYRQAPGKDRELVAALSSGRETYYIGPVKGRFIISRDDNKDTLYLQMNNLKLEDTAIYTCRLGLHWGQGTQVTVSS
Take B2: the binding result in assay [2] is given as “no binding”.
